One assay has as its target HLA-B*15:02. Briefly: IEDB peptide-MHC binding, purified MHC/direct/fluorescence; filed as Kd, often an IC50 or EC50 that approximates it; ≥ and ≤ were set here for values at or beyond the usual limits of such assays. As to conditions: source organism: dengue virus type 1.
Assay [1] deals with HLA-B*46:01. The assay is described as above. As to conditions: source organism: Dengue virus.
For the next assay, the target named is HLA-A*30:02. Kind of assay: IEDB peptide-MHC binding, purified MHC/competitive/radioactivity; filed as Kd, often an IC50 or EC50 that approximates it; ≥ and ≤ were set here for values at or beyond the usual limits of such assays. The note with it: source organism: Dengue virus 1 Brazil/97-11/1997.
The target in a further assay is HLA-B*08:01. Kind of assay: IEDB peptide-MHC binding, purified MHC/competitive/fluorescence; filed as Kd, often an IC50 or EC50 that approximates it; ≥ and ≤ were set here for values at or beyond the usual limits of such assays. The note with it: source organism: Mycobacterium leprae.
The target of a further assay is HLA-A*26:03. The description is as above. As to conditions: source organism: Mycobacterium leprae.
Another assay concerns the target HLA-B*15:01. The description is as above. The note with it: source organism: Mycobacterium leprae.
For the next assay, the target named is HLA-A*02:03. Described as above. As to conditions: source organism: Mycobacterium leprae.
In the next assay the target is HLA-A*11:01. The assay is described as above. As to conditions: source organism: Mycobacterium leprae.
For a further assay, the target named is HLA-A*69:01. Described as above. The note with it: source organism: Mycobacterium leprae.
The target in another assay is HLA-A*68:02. The assay is described as above. The note with it: source organism: Mycobacterium leprae.
In a further assay the target is HLA-B*48:01. The description is as above. The note with it: source organism: Mycobacterium leprae.
The next assay has as its target HLA-B*15:17. The description is as above. The note with it: source organism: Mycobacterium leprae.
In another assay the target is HLA-A*30:01. The description is as above. As to conditions: source organism: Mycobacterium leprae.
Another assay addresses HLA-A*01:01. The description is as above. The note with it: source organism: Mycobacterium leprae.
Assay [2] deals with HLA-B*46:01. Described as above. As to conditions: source organism: Mycobacterium leprae.
Another assay deals with HLA-B*27:05. The description is as above. The note with it: source organism: Mycobacterium leprae.
In a further assay the target is HLA-B*57:01. The assay is described as above. The note with it: source organism: Mycobacterium leprae.
Another assay addresses HLA-A*02:01. The assay is described as above. As to conditions: source organism: Mycobacterium leprae.
Another assay deals with HLA-B*08:02. Described as above. The note with it: source organism: Mycobacterium leprae.
The target in another assay is HLA-B*18:01. The assay is described as above. The note with it: source organism: Mycobacterium leprae.
The target of the next assay is HLA-B*08:03. The assay is described as above. The note with it: source organism: Mycobacterium leprae.
The target in another assay is HLA-B*35:01. The assay is described as above. As to conditions: source organism: Mycobacterium leprae.
A further assay deals with HLA-A*02:06. The assay is described as above. The note with it: source organism: Mycobacterium leprae.
The target of the next assay is HLA-B*07:02. The assay is described as above. The note with it: source organism: Mycobacterium leprae.
Another assay deals with HLA-B*58:01. The description is as above. As to conditions: source organism: Mycobacterium leprae.
A further assay deals with HLA-A*31:01. Described as above. The note with it: source organism: Mycobacterium leprae.
Another assay addresses HLA-A*26:02. The description is as above. As to conditions: source organism: Mycobacterium leprae.
The target of another assay is HLA-B*40:01. The assay is described as above. As to conditions: source organism: Mycobacterium leprae.
The target of a further assay is HLA-A*24:03. The description is as above. The note with it: source organism: Bacillus anthracis str. A0488.
In another assay the target is HLA-B*83:01. Described as above. The note with it: source organism: Bacillus anthracis str. A0488.
Another assay has as its target HLA-A*03:19. The assay is described as above. As to conditions: source organism: Bacillus anthracis str. A0488.
The target of the next assay is HLA-B*45:06. Described as above. The note with it: source organism: Bacillus anthracis str. A0488.
The next assay deals with HLA-B*27:20. The assay is described as above. As to conditions: source organism: Bacillus anthracis str. A0488.
The target of a further assay is HLA-C*06:02. The description is as above. The note with it: source organism: Bacillus anthracis str. A0488.
The target of the next assay is HLA-A*32:07. The assay is described as above. The note with it: source organism: Bacillus anthracis str. A0488.
Another assay deals with HLA-B*15:42. Described as above. As to conditions: source organism: Bacillus anthracis str. A0488.
The next assay concerns the target HLA-B*40:13. The description is as above. The note with it: source organism: Bacillus anthracis str. A0488.
A further assay concerns the target HLA-C*15:02. Kind of assay: IEDB peptide-MHC binding, purified MHC/direct/fluorescence; filed as Kd, often an IC50 or EC50 that approximates it; ≥ and ≤ were set here for values at or beyond the usual limits of such assays. The note with it: source organism: Bacillus anthracis str. A0488.

This note sets out measurements from the Immune Epitope Database (IEDB).

Where only a bound is given, the exact number is not on record here.

In the case of KLEGKIVQY, the figures for the Kd with HLA-B*15:02, with HLA-B*46:01 [1] and in the assay with HLA-A*30:02 were no less than 20 µM, no less than 20 µM and 0.833 µM, respectively.

As for TVGYMYIMK, the Kd with HLA-B*08:01 is no less than 20 µM; in the assay with HLA-A*26:03, no less than 20 µM; in the assay with HLA-B*15:01 it was no less than 20 µM; in the assay with HLA-A*02:03 it was no less than 20 µM; with HLA-A*11:01, 0.0049 µM; in the assay with HLA-A*69:01 it was no less than 20 µM. The Kd with HLA-A*68:02 was no less than 20 µM; in the assay with HLA-B*48:01, no less than 20 µM; in the assay with HLA-B*15:17 it was no less than 20 µM; with HLA-A*30:01 it was 0.0488 µM; in the assay with HLA-A*01:01, no less than 20 µM; in the assay with HLA-B*46:01 [2], no less than 20 µM. For the same sequence, the Kd with HLA-B*27:05, with HLA-B*57:01, in the assay with HLA-A*02:01, in the assay with HLA-B*08:02, with HLA-B*18:01 and in the assay with HLA-B*08:03 was no less than 20 µM throughout. Further, the Kd was no less than 20 µM with HLA-B*35:01; no less than 20 µM with HLA-A*02:06; no less than 20 µM in the assay with HLA-B*07:02; no less than 20 µM with HLA-B*58:01; no less than 5 µM with HLA-A*31:01; no less than 20 µM with HLA-A*26:02. Further, in the assay with HLA-B*40:01, the dissociation constant Kd was no less than 20 µM.

For the sequence RFFKHFMSL, the Kd is no more than 0.0001 µM in the assay with HLA-A*24:03; no less than 5 µM with HLA-B*83:01; 0.0461 µM in the assay with HLA-A*03:19; no less than 5 µM with HLA-B*45:06; 0.0161 µM in the assay with HLA-B*27:20; 1.19 µM with HLA-C*06:02. Moreover, the Kd with HLA-A*32:07 was 0.0004 µM; with HLA-B*15:42 it was no less than 5 µM; with HLA-B*40:13, 0.0052 µM; in the assay with HLA-C*15:02 it was 1.57 µM.
